PMC9873692 (2023)

B1: CheY protein from Thermotoga maritima (natural protein)
chain: MGKRVLIVDDAAFMRMMLKDIITKAGYEVAGEATNGREAVEKYKELKPDIVTMDITMPEMNGIDAIKEIMKIDPNAKIIVCSAMGQQAMVIEAIKAGAKDFIVKPFQPSRVVEALNKVSK
B2: P2 domain of the histidine kinase CheA (domain or fragment)
chain: GFKTFYIKVILKEGTQLKSARIYLVFHKLEELKCEVVRTIPSVEEIEEEKFENEVELFVISPVDLEKLSEALSSIADIERVIIKEV
modifications: biotin (in vivo biotinylation, AviTag)

How the values were obtained:
Assay in all cases: ITC
[1] = molecular target: B2
[2] = molecular target: Cheytin 3
[3] = molecular target: Cheytin 4
[4] = molecular target: Cheytin 1
[5] = molecular target: Cheytin 2

| Kd [1] [nM] | Kd [2] [nM] | Kd [3] [nM] | Kd [4] [nM] | Kd [5] [nM] | Binder |
| --- | --- | --- | --- | --- | --- |
| 150 | – | – | – | – | B1 |
| – | 660 | 490 | 220 | 110 | B2 |
